From publication PMC1361355 (2006)

T1: NiV-G-Fc, a fusion construct between the ectodomain of NiV-G and the Fc region of human IgG1 (Nipah virus, UniProt Q9IH62 71-602)
T1 chain: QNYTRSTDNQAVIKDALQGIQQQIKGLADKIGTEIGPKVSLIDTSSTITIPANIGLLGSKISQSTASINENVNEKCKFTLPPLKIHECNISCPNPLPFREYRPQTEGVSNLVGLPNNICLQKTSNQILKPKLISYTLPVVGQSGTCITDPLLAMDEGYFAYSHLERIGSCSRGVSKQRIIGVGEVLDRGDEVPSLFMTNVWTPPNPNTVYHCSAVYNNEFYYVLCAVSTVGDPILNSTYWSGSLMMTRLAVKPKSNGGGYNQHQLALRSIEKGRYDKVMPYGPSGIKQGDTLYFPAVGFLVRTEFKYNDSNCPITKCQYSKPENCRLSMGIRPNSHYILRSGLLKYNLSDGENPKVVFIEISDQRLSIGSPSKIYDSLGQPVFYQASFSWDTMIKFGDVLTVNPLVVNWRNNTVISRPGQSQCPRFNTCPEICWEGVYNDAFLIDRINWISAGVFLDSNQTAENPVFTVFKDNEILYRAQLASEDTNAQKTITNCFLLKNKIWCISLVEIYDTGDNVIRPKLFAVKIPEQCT

B1: ephrinB3-Fc (soluble Fc-fusion ephrin protein, purchased) (Fc fusion)
chain: LSLEPVYWNSANKRFQAEGGYVLYPQIGDRLDLLCPRARPPGPHSSPNYEFYKLYLVGGAQGRRCEAPPAPNLLLTCDRPDLDLRFTIKFQEYSPNLWGHEFRSHHDYYIIATSDGTREGLESLQGGVCLTRGMKVLLRVGQSPRGGAVPRKPVSEMPMERDRGAAHSLEPGKENLPGDPTSNATSRGAEGPLPPPSMP
B2: ephrinB2-Fc (soluble Fc-fusion ephrin protein, purchased) (Fc fusion)
chain: RSIVLEPIYWNSSNSKFLPGQGLVLYPQIGDKLDIICPKVDSKTVGQYEYYKVYMVDKDQADRCTIKKENTPLLNCARPDQDVKFTIKFQEFSPNLWGLEFQKNKDYYIISTSNGSLEGLDNQEGGVCQTRAMKILMKVGQDASSAGSARNHGPTRRPELEAGTNGRSSTTSPFVKPNPGSSTDGNSAGHSGNNLLGSEVA

Target: T1, NiV-G-Fc, a fusion construct between …
Assay: SPR

Binder | Kd
B1 | 2.83 nM
B2 | 0.11 nM
